Reference: publication PMC10715038
Where two headings read alike, the source gives them in different places.

Tests used:
Experiment in all cases: SPR
[1] = target: Horse ACE2-huFc (soluble horse ACE2 ectodomain, human IgG1 Fc fusion) (horse (Equus caballus)) (UniProt F6V9L3)
[2] = target: Pangolin ACE2-huFc (soluble pangolin ACE2 ectodomain, human IgG1 Fc fusion) (pangolin (Manis javanica))
[3] = target: Horse ACE2-huFc (soluble horse ACE2 ectodomain, human IgG1 Fc fusion) (horse (Equus caballus)) (UniProt F6V9L3); remark: listed apart in the source

Substance: SARS-CoV-2 WHU01 Spike RBD, monomeric (from UniProt P0DTC2) (domain or fragment)
- Kd [1]: 67.4 nM
- Kd [2]: 67.1 nM
- Kd [3]: 89.8 nM
